B1: recombinant human galectin-4 (natural protein)
chain: MAYVPAPGYQPTYNPTLPYYQPIPGGLNVGMSVYIQGVASEHMKRFFVNFVVGQDPGSDVAFHFNPRFDGWDKVVFNTLQGGKWGSEERKRSMPFKKGAAFELVFIVLAEHYKVVVNGNPFYEYGHRLPLQMVTHLQVDGDLQLQSINFIGGQPLRPQGPPMMPPYPGPGHCHQQLNSLPTMEGPPTFNPPVPYFGRLQGGLTARRTIIIKGYVPPTGKSFAINFKVGSSGDIALHINPRMGNGTVVRNSLLNGSWGSEEKKITHNPFGPGQFFDLSIRCGLDRFKVYANGQHLFDFAHRLSAFQRVDTLEIQGDVTLSYVQI
B2: H6 flagella (polymeric flagellin) from E. coli O127:H6 (natural protein)
chain: MAQVINTNSLSLITQNNINKNQSALSSSIERLSSGLRINSAKDDAAGQAIANRFTSNIKGLTQAARNANDGISVAQTTEGALSEINNNLQRIRELTVQASTGTNSDSDLDSIQDEIKSRLDEIDRVSGQTQFNGVNVLAKDGSMKIQVGANDGQTITIDLKKIDSDTLGLNGFNVNGKGETANTAATLKDMSGFTAAAAPGGTVGVTQYTDKSAVASSVDILNAVAGADGNKVTTSADVGFGTPAAAVTYTYNKDTNSYSAASDDISSANLAAFLNPQARDTTKATVTIGGKDQDVNIDKSGNLTAADDGAVLYMDATGNLTKNNAGGDTQATLAKVATATGAKAATIQTDKGTFTSDGTAFDGASMSIDANTFANAVKNDTYTATVGAKTYSVTTGSAAADTAYMSNGVLSDTPPTYYAQADGSITTTEDAAAGKLVYKGSDGKLTTDTTSKAESTSDPLAALDDAISQIDKFRSSLGAVQNRLDSAVTNLNNTTTNLSEAQSRIQDADYATEVSNMSKAQIIQQAGNSVLAKANQVPQQVLSLLQG
B3: H48 flagella (polymeric flagellin) from commensal E. coli K12:O175:H48 (natural protein)
chain: MAQVINTNSLSLITQNNINKNQSALSSSIERLSSGLRINSAKDDAAGQAIANRFTSNIKGLTQAARNANDGISVAQTTEGALSEINNNLQRVRELTVQATTGTNSESDLSSIQDEIKSRLDEIDRVSGQTQFNGVNVLAKNGSMKIQVGANDNQTITIDLKQIDAKTLGLDGFSVKNNDTVTTSAPVTAFGATTTNNIKLTGITLSTEAATDTGGTNPASIEGVYTDNGNDYYAKITGGDNDGKYYAVTVANDGTVTMATGATANATVTDANTTKATTITSGGTPVQIDNTAGSATANLGAVSLVKLQDSKGNDTDTYALKDTNGNLYAADVNETTGAVSVKTITYTDSSGAASSPTAVKLGGDDGKTEVVDIDGKTYDSADLNGGNLQTGLTAGGEALTAVANGKTTDPLKALDDAIASVDKFRSSLGAVQNRLDSAVTNLNNTTTNLSEAQSRIQDADYATEVSNMSKAQIIQQAGNSVLAKANQVPQQVLSLLQG

Experiments:
[1] = target: B2; assay: ELISA
[2] = target: B3; assay: ELISA
SEC = target: the molecule itself; assay: SEC

| Binder | binding result [1] | binding result [2] | binding result (SEC) |
| --- | --- | --- | --- |
| B1 | binds | binds | – |
| B2 | – | – | binds |
| B3 | – | – | binds |

Reference: publication doi:10.1101/2020.02.12.945204 (bioRxiv, 2020)
